Seven molecules from patent US20090011988A1 (Genentech, published 2009) can be followed below.

Assay [1] has as its target T1, human IGFBP-1 (human, UniProt P08833 26-259).
T1 sequence (looked up): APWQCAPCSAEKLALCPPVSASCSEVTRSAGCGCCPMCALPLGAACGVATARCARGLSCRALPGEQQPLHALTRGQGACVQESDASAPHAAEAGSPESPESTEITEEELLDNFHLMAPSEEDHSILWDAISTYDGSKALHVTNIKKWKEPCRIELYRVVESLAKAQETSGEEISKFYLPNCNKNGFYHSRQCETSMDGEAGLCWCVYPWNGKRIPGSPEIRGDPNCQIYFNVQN
The assay can be described thus: competitive phage ELISA, value as restated in Table XIV (Table XIII prints 7.0 for the same pair).

In assay [2] the target is T1, human IGFBP-1. The assay can be described thus: competitive phage ELISA. As to the method:
E. coli cells (XL1-Blue, Stratagene) freshly transformed with phagemid vector were grown overnight in 5 mL 2YT medium (Sambrook et al., supra) in the presence of M13-VCS helper phage (Stratagene). Phage particles were harvested and resuspended in PBS buffer as described in Lowman, H. B., “Phage Display of Peptide Libraries on Protein Scaffolds,” in Cabilly, S. (ed.), Combinatorial Peptide Library Protocols (Humana Press Inc.: Totowa, N.J., 1998), pp. 249-264. Then phage concentrations were normalized to yield a maximal ELISA signal of 0.2-0.4 for each mutant (Lowman, in Cabilly, S. (ed.), supra). Threefold serial dilutions of soluble competitor were prepared on non-absorbent microtiter plates (Nunc, F, 96 wells) with binding buffer (0.5% TWEEN 20%/PBS) containing phage at the previously determined concentrations. […] After blocking, the plates containing immobilized target were washed with 0.05% TWEEN™/PBS buffer and subsequently incubated with 80 μl/well of the premixed phage-competitor solutions for 1 hour at room temperature. […] IC₅₀ values were determined by fitting the binding data to a generic saturation curve (Lowman, in Cabilly, S. (ed.), supra). At least two individual clones of each IGF-1 mutant were assayed. Numbers in Table XIII represent mean±standard deviation of individually assessed IC₅₀ values.
For orientation: An ELISA detects its analyte on a solid surface through an enzyme-linked reagent.

For assay [3], the target named is IGF-1 G1S-A70V displayed on phage (human; bacteriophage M13). Kind of assay: competitive phage ELISA: phage displaying G1S-A70V IGF-1 on an IGFBP-3-coated plate (1 µg/ml), competed by soluble IGFBP-3; OD492.
The target is the same in assay [4]. Kind of assay: competitive phage ELISA: phage on an IGFBP-3-coated plate (1 µg/ml), competed by soluble IGFBP-3; OD492, mean ± SD, n=2.
The target in assay [5] is T1, human IGFBP-1. The assay can be described thus: BIAcore inhibition assay; reference.
Assay [6] addresses T1, human IGFBP-1. Kind of assay: inhibition assays.
The target in assay [7] is T1, human IGFBP-1. The assay can be described thus: BIAcore kinetics, IGFBP-1 coupled to chip. As to the method: For each dilution of peptides, a global fit of the sensorgram data was performed using a 1:1 Langmuir binding model.
Assay [8] concerns the target IGF-1 G1S-A70V displayed on phage (human; bacteriophage M13). Kind of assay: competitive phage ELISA: phage on an IGFBP-3-coated plate (1 µg/ml), competed by soluble IGFBP-1; OD492, mean ± SD, n=2.
The target is the same in assay [9]. Kind of assay: competitive phage ELISA: phage displaying G1S-A70V IGF-1 on an IGFBP-1-coated plate (1 µg/ml), competed by soluble IGFBP-1; OD492.
Assay [10] has as its target T1, human IGFBP-1. Kind of assay: BIAcore inhibition assay. As to the method: Peptides were assayed in a BIAcore™ assay as described in WO 98/45427, supra.
Assay [11] addresses T1, human IGFBP-1. The assay can be described thus: BIAcore inhibition assay. The source holds these as a separate data set. Background: Surface plasmon resonance follows binding to a sensor surface in real time, without labels.
The target in assay [12] is T1, human IGFBP-1. The assay can be described thus: BIAcore inhibition, 9-10 nM IGFBP-1 to immobilized IGF-1.

Positions of bridges follow the written chain, without caps; N, C: chain ends. No end group written: not given here. A value given as a limit tells only on which side of the number the result lay.

In the case of “IGF-1 F16A displayed on phage (from UniProt P69168 267-424) (ligand)”, the relative IC50 (mut/G1S-A70V) with human IGFBP-1 [1] worked out at 6; with human IGFBP-1 [2], 7.
As usually defined, the IC50 is the midpoint of a concentration-inhibition curve. Read a high IC50 as weaker potency in that assay. Molecule “recombinant human IGFBP-3 (from UniProt P17936 28-291)” gave a half-maximal inhibitory concentration (IC50) in [3] of 0.5 nM. Further, in assay [4], the IC50 (read off the curve) was found to be 0.7 nM.
Take CRAGPLQWLCEKYFG (disulfide 1-10) [BP1-01]: the “fold potency reduction, IC50 (BP1-01)/IC50 (mut)” value with human IGFBP-1 [5] was 1.
Usually Kd stands for a measure of binding affinity in units of concentration. In the case of EARVCRAGPLQWLCEKYFSTY (disulfide 5-14) [BP1-25], the “fold affinity improvement over BP1-16” value with human IGFBP-1 [6] was ~20 fold. The same molecule gave a Kd with human IGFBP-1 [7] of 42 nM.

B1: human IGFBP-1 (protein, UniProt P08833 26-259, looked up)
chain: APWQCAPCSAEKLALCPPVSASCSEVTRSAGCGCCPMCALPLGAACGVATARCARGLSCRALPGEQQPLHALTRGQGACVQESDASAPHAAEAGSPESPESTEITEEELLDNFHLMAPSEEDHSILWDAISTYDGSKALHVTNIKKWKEPCRIELYRVVESLAKAQETSGEEISKFYLPNCNKNGFYHSRQCETSMDGEAGLCWCVYPWNGKRIPGSPEIRGDPNCQIYFNVQN
The molecule B1 had an IC50 (read off the curve) in assay [8] of 8 nM. The same molecule gave a half-inhibitory concentration (IC50) in assay [9] of 8.5 nM.
Ac-LEWLAEKYEG (linker 2-9 via 1,5‑diaminopentane) [(i+7)B]: in the assay with human IGFBP-1 [10], the “fold potency reduction, IC50 (BP1-01)/IC50 (mut)” value is > 360. Further, in the assay with human IGFBP-1 [11], the binding result was “no binding (tested: >360-fold weaker than BP1-01)”.
Consider GQQSCAAGPLQWLCEHYFSTYGR (not fully specified (bridges); cysteine pairing not given here) [BP1-625], for which, in the assay with human IGFBP-1 [12], the “fold improved potency over BP1-01” value was ~20 fold.
